According to patent publication US20230399385A1:

Target: SARS-CoV-2 spike (S) glycoprotein, wild-type, on pseudotyped virus (SARS-CoV-2) (UniProt P0DTC2)
Assay: cell-based or functional assay

JS016 (antibody), sequence (VH): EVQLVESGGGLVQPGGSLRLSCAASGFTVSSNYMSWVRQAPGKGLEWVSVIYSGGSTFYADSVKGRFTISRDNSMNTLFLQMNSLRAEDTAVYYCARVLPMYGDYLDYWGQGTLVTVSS
JS016 (antibody), sequence (VL): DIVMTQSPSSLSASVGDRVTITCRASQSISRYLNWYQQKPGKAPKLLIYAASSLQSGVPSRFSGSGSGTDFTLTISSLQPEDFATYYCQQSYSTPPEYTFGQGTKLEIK

For JS016 (antibody), the IC50, pseudovirus neutralization study against wild-type SARS-CoV-2 was 0.0631 µg/mL.
